The values that follow are results of earlier work, collected in PMC8711257.

One data set addresses MET (Homo sapiens) (UniProt P08581).
Another data set deals with MET ECD (Homo sapiens) (UniProt P08581).

For the substance HGF NK1 NK1 (from UniProt P14210), the Kd in the data set with MET (Homo sapiens) was 3 nM; in the data set with MET ECD (Homo sapiens), 150 nM.

Broadly, the Kd is the equilibrium constant for the complex coming apart.
